Experimental findings from patent publication CN110982824A are described below.

Assay [1] addresses PD-L1 (UniProt Q9NZQ7). The assay is described as follows: competition ELISA, PD-1 at 50 μg/ml, BP at 200 μg/ml.
Assay [2] has as its target PD-L1 (UniProt Q9NZQ7). The assay is described as follows: ELISA, PD-L1 coated, BP at 200 μg/ml, reference PD-1 binding PD-L1.

UniProt Q9NZQ7, sequence (Q9NZQ7 19-238 limits assumed): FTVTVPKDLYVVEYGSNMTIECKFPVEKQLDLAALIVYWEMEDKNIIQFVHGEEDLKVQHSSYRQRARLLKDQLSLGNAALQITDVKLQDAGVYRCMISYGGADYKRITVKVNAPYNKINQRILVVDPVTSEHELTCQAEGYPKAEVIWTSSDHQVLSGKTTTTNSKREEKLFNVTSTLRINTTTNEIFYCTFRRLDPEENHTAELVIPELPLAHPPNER

B1: 拮抗PD-1的抗体类似物BP蛋白 (VHH, not shown: small tags and cut ends)
VHH: DVQLQASGGGSVQAGGSLRLSCAASGYTIGTYAISWFRQAPGKEREGVAGIIPIFGKAHTYYADSVKGRFTISQDNAKNTVYLLMNSLEPEDTAIYYCAAKFHFVSGSPFGMDSWGQGTQVTVSS
As for B1, the 抑制率 (inhibition of PD-1 binding to PD-L1) in the assay with PD-L1 [1] turned out to be 25%. For the same molecule, the 结合强度 (relative to PD-1 binding PD-L1) in the assay with PD-L1 [2] worked out at 115%.
